The values below come from US20060165681A1 (GlaxoSmithKline, published 2006).

The target of assay [1] is T1, rat MAG-Fc fusion protein (R&D Systems; 538-MG) (rat; human, UniProt P07722 20-516, limits assumed).
T1 construct: Bought reagent coated on ELISA plates; not shown: human Fc
T1 sequence (looked up): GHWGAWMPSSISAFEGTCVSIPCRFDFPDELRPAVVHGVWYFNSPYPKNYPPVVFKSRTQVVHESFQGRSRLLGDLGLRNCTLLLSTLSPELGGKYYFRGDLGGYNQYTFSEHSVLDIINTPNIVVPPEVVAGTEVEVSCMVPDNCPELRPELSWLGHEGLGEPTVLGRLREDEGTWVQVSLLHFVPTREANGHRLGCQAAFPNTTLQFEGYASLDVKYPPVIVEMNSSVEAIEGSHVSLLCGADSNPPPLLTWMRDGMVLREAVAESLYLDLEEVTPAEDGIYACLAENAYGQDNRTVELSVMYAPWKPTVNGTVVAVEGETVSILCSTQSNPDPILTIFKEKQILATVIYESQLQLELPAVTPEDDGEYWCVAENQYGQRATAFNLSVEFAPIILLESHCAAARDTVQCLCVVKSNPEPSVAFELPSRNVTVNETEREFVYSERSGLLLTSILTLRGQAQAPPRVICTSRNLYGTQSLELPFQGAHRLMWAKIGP
In words: ELISA on coated rat MAG-Fc, purified antibody.

In assay [2] the target is T1, rat MAG-Fc fusion protein (R&D Systems; …). As to the kind of experiment: ELISA on coated rat MAG-Fc; purified antibody serially diluted from 5000 ng/ml. On the procedure:
96-well Nunc Maxisorp plates were coated overnight at 4° C. with rat MAG-Fc fusion protein (2.5 μg/ml; R&D Systems; Cat.No. 538-MG) in PBS. Plates were washed twice with PBS containing Tween20 (0.1% v/v; PBST) and blocked with PBS containing BSA (1% w/v) for 1 h at room temperature (RT). Purified humanised antibody was adjusted to a starting concentration of 5 μg/ml in blocking buffer and then serial diluted. Antibody samples were incubated 1 h at RT and plates then washed 3× with PBST. Secondary antibody (Goat anti-human light chain specific-peroxidase conjugate; Sigma A-7164) was added diluted 1/5000 in blocking buffer and incubated for 1 h at RT. Wells were washed three times as above and binding detected by adding substrate (OPD tablets dissolved according to instructions; Sigma P-9187). Colour development was monitored and the reaction stopped using 3M H₂SO₄ Colour development was read at 490 nm.
(In an ELISA, binding on a coated surface is turned into a signal by an enzyme label.)

B1: humanised anti-MAG antibody BVh1/CVl1 (antibody, V domains shown)
VH: QVQLVQSGSELKKPGASVKVSCKASGYTFTNYGMNWVRQAPGQGLEWMGWINTYTGEPTYADDFTGRFVFSLDTSVSTAYLQISSLKAEDTAVYYCARNPINYYGINYEGYVMDYWGQGTLVTVSS
VL: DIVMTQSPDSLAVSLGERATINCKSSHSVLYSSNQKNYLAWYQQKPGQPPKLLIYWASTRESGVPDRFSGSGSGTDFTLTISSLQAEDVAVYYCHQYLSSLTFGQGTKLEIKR
notes: The purified material has a mutated human IgG1 constant region (Kabat residues 248 and 250 changed to alanine) and a human kappa light chain; The antibody was also tested as culture supernatant on human MAG, and the constant region is not restated there; also called BVh1/CVl1 mutated IgG1
B1: the binding result in assay [1] is “binds”.

B2: humanised anti-MAG antibody BVh3/CVl3 (antibody, human IgG1, V domains shown)
VH: QVQLVQSGSELKKPGASVKVSCKASGYTFTNYGMNWVRQAPGQGLEWMGWINTYTGEPTYADDFTGRFVFSLDTSVSTAYLQISSLKAEDTATYFCARNPINYYGINYEGYVMDYWGQGTLVTVSS
VL: DIVMTQSPDSLAVSLGERATINCKSSHSVLYSSNQKNYLAWYQQKPGQPPKLLIYWASTRESGVPDRFSGSGSGTDFTLTISSLHTEDVAVYYCHQYLSSLTFGQGTKLEIKR
notes: The antibody was also tested as culture supernatant on human MAG
Take B2: in assay [2], the binding result is “binds”.
